This is an account of results in patent US20260098092A1 (CHULALONGKORN UNIVERSITY, published 2026).

Numbering of substitutions follows the chain as printed. In names and notes the source's numbering stands. Read-outs that look alike come from different tables or passages of the source.

For assay [1], the target named is T1, human PD-1 on PD-1-expressing Jurkat effector cells (human, UniProt Q15116 25-288). The assay can be described thus: cell-based or functional assay.
Assay [2] has as its target T1, human PD-1 on PD-1-expressing Jurkat …. In words: cell-based or functional assay. This is another data set of the same source.
The target of assay [3] is T2, recombinant human PD-1 His-tag protein (R&D Systems) (human, UniProt Q15116 25-167).
T2 construct: Bought reagent; Used for the ELISA (coated) and for SPR (analyte); also called PD-1 protein; human PD-1 protein; not shown: His-tag
The assay can be described thus: ELISA, PD-1 His-tag coated on plate, anti-human IgG Fc-HRP detection. How it is done:
ELISA technique was used to select hybridoma mini-pools producing anti-PD-1 antibodies using the following procedure. MaxiSorp ELISA plate was coated with PD-1 His-tag (R&D System) in PBS buffer (10 ng/100 μL/well) at 4° C. overnight. […] The culture supernatant of each mini-pool (100 μL) was added to the plate then incubated for 1 hour at 37° C. After washing, the plate was probed with goat anti-mouse IgG Fcγ-HRP (Jackson Immuno Research) diluted 1:8,000 in PBST (100 μL/well) and incubated for 1 hour at 37° C. […] 1 M H₂SO₄ (50 μL/well) was used to stop the reaction. […] Hybridoma mini-pools with absorbance values of more than 1.0 were selected for further screening.
The purified chimeric antibodies were 2-fold serial diluted for eleven rounds starting from […] until reaching the final concentration of 0.977 ng/mL. The PD-1 binding activity of purified chimeric antibodies was evaluated by ELISA following the procedure mentioned in Example 2, while the goat anti-human IgG Fcγ-HRP antibody (Jackson Immuno Research) diluted 1:10.000 in PBST was used to detect chimeric antibodies.
A general note: In an ELISA, binding on a coated surface is turned into a signal by an enzyme label.

For assay [4], the target named is T2, recombinant human PD-1 His-tag protein …. In words: SPR, Biacore T200, antibody captured on Protein G chip, PD-1 His-tag injected, single-cycle kinetics, 1:1 model. How it is done: (§1) The Biacore T200 instrument, equipped with a Protein G sensor chip (GE Healthcare), was used to determine the binding kinetics between chimeric anti-PD-1 antibodies and PD-1 protein. Each purified chimeric anti-PD-1 antibody (1 μg/mL) was injected into the chip with a flow rate of 30 μL/min for 60 sec. […] The HBS-EP+buffer (GE Healthcare) was used as a buffer blank and diluent. The association constant (kₒₙ), dissociation constant (koff), and equilibrium constant (KD) values were calculated using Biacore T200 evaluation software (version 3.1) with a 1:1 Langmuir binding model curve fitting.
Background: In SPR one partner is held on a chip, and binding of the other changes the refractive index at the surface.

For assay [5], the target named is T1, human PD-1 on PD-1-expressing Jurkat …. In words: cell-based or functional assay. The source holds these as a separate data set.
For assay [6] the target is unchanged. In words: cell-based or functional assay. This is another data set of the same source.
Assay [7] has as its target T2, recombinant human PD-1 His-tag protein …. The assay can be described thus: SPR, Biacore T200, as in Example 8 (antibody on Protein G chip, PD-1 His-tag injected). How it is done: as §1

T2 sequence (Q15116 25-167 limits assumed): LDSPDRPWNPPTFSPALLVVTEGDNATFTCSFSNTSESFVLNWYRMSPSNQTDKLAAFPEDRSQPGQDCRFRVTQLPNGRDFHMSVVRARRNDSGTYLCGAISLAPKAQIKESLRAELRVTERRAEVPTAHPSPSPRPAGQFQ
T1 sequence (Q15116 25-288): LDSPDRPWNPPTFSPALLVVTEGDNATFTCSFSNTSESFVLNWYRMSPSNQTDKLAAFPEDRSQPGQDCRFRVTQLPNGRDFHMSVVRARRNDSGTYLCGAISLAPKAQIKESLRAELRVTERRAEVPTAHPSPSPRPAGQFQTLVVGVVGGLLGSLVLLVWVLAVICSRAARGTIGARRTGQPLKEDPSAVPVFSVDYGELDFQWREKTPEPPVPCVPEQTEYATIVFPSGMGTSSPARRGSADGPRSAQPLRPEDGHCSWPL

B1: xCUSB0136 (antibody, human IgG4, V domains shown)
VH: QVQLKESGPGLVAPSQSLSITCTVSGFSLTTYDIIWIRQSPGKGLEWLGVIWTGGDTNYNSAFMSRLSISKDNSKSQIFLKMNSLQTDDTAIYYCVRDWAYWGQGTLVTVST
VL: NIVLTQSPASLAVSLGQRATISCRASESVDNYGNSFIQWYQQKPGQPPKLLIYFASNLQSGVPARFSGSGSRTDFTLTIDPVEADDAATYYCHQNNEDPFTFGSGTKLEIK
notes: Chimeric: mouse variable regions joined to human IgG4/kappa constant regions; also called chimeric CUSB0136; xCUSBO136; not shown: human IgG4 constant region, UniProt P01861; human kappa constant region, UniProt P01834
By EC50 is commonly meant the concentration at which the effect is half-maximal. As usually defined, the Kd is the constant that tells how readily two partners part at equilibrium. Usually koff stands for the first-order rate constant of dissociation. Usually kon stands for the second-order rate constant of association. B1: the “PD-1/PD-L1 blockade bioassay, IC50” value in assay [1] turned out to be 0.372 µg/mL. Also, the “IC50 (read off the curve)” value in assay [2] is roughly 0.4 µg/mL. Further, in assay [3], the EC50 is 0.0154 µg/mL. In assay [4], the Kd came to 0.083 nM, the koff stood at 0.000193 s⁻¹ and the kon is 2.3e+06 M⁻¹ s⁻¹.

B2: xCUSB0125 (antibody, human IgG4, V domains shown)
VH: DVQLRESGPGLVKPSQSLSLTCTVTGYSITSDYAWNWIRQFPGNKLEWMGYIYYSGTTSYNPSLKSRISITRDTSKNQFFLQLNSVTTEDTATYYCARNYGSAFYYFDYWGQGTTLTVSS
VL: DILMTQSPSSMSVSLGDTVTITCHASQGISSNIGWLQQKPGKSFKGLIYRGTNLEDGVPSRFSGSGSGADYSLTISSLESEDFADYYCVQYAQFPPTFGGGTKLEIK
notes: Chimeric: mouse variable regions joined to human IgG4/kappa constant regions; also called chimeric CUSB0125; not shown: human IgG4 constant region, UniProt P01861; human kappa constant region, UniProt P01834
B2: in assay [1], the “PD-1/PD-L1 blockade bioassay, IC50” value came out at 0.302 µg/mL. The “IC50 (read off the curve)” value in assay [5] is roughly 0.3 µg/mL. Also, the EC50 in assay [3] amounted to 0.0201 µg/mL. Also, in assay [4], the Kd came to 0.18 nM, the koff worked out at 0.000512 s⁻¹ and the kon turned out to be 2.84e+06 M⁻¹ s⁻¹.

B3: zCUSB0125.3 (antibody, human IgG4, V domains shown)
VH: QVQLQESGPGLVKPSQTLSLTCTVSGYSITSDYAWNWIRQPPGKGLEWIGYIYYSGTTSYNPSLKSRVTISVDTSKNQFSLKLSSVTAADTAVYYCARNYGSAFYYFDYWGQGTTLTVSS
VL: DIQMTQSPSSVSASVGDRVTITCHASQGISSNIGWLQQKPGKAFKGLIYRGTNLEDGVPSRFSGSGSGTDYTLTISSLQPEDFATYYCVQYAQFPPTFGGGTKLEIK
notes: domain: human IgG4 constant region; Humanized; human IgG4 S228P and kappa constant regions; also called CUSB0125-BMVH.1 with CUSB0125-BMVL.3; not shown: human kappa constant region
Regarding B3, the “PD-1/PD-L1 blockade bioassay, IC50” value in assay [6] was 2.41 µg/mL. For the same molecule, in assay [7], the equilibrium dissociation constant (Kd) came to 3.28 nM, the koff was 0.00944 s⁻¹ and the kon came to 2.88e+06 M⁻¹ s⁻¹.

B4: zCUSB0125.6 (antibody, human IgG4, V domains shown)
VH: B3 VH with I49M, V68I, V72R, V93T
VL: B3 VL
notes: domain: human IgG4 constant region; Humanized; human IgG4 S228P and kappa constant regions; also called CUSB0125-BMVH.2 with CUSB0125-BMVL.3; not shown: human kappa constant region
Take B4: the “PD-1/PD-L1 blockade bioassay, IC50” value in assay [6] came to 0.297 µg/mL. Besides, in assay [7], the Kd came to 0.227 nM, the koff is 0.000721 s⁻¹ and the kon was 3.18e+06 M⁻¹ s⁻¹.

B5: zCUSB0125.12 (antibody, human IgG4, V domains shown)
VH: B3 VH with P41F, G45K, I49M, V68I, T69S, S71T, V72R
VL: B3 VL
notes: domain: human IgG4 constant region; Humanized; human IgG4 S228P and kappa constant regions; also called CUSB0125-BMVH.4 with CUSB0125-BMVL.3; not shown: human kappa constant region
As for B5, the “PD-1/PD-L1 blockade bioassay, IC50” value in assay [6] amounted to 0.312 µg/mL. For the same molecule, in assay [7], the Kd was 0.182 nM, the off-rate (koff) is 0.000579 s⁻¹ and the kon stood at 3.18e+06 M⁻¹ s⁻¹.
